The text below walks through data of publication PMC3115021, “Dynamics of Cdk1 Substrate Specificity during the Cell Cycle” (Molecular Cell, 2011).

Common to all, as to assay: Quantitative phosphorylation assay of T33-Sic1ΔC constructs and recombinant substrates
Common to all, as to format: biochemical
What all share (conditions): Table S2; purified protein substrate; relative values, not divided by [S]

One data set deals with T1, Clb3-Cdk1 (Saccharomyces cerevisiae, UniProt P00546+P24870).
T1 construct: We purified the four cyclin-Cdk1 complexes from yeast; made in house; host or cells: S. cerevisiae strain DOM0957 (gal-CLB3-TAP, sic1 deleted); Cks1 from bacteria
Here is the method: (§1) For the quantitative phosphorylation assays of T33-Sic1ΔC constructs and recombinant substrates, substrate concentrations were kept in the range of 0.5–2 μM (in the linear [S] versus v0 range, several-fold below the estimated KM value), and initial velocity conditions were defined as an initial substrate turnover of up to 10% of the total turnover. For the steady-state peptide kinetics of the Histone peptide PKTPKKAKKL, a similar assay composition was used as for protein substrates, and phosphocellulose paper was used for the quantification of the phosphorylated substrate. […]
(§2) similar substrate specificity as the Cln2-Cdk1 version purified using a TAP-tag. N-terminally 6His-tagged recombinant T33-Sic1ΔC constructs and substrates were cloned into the pET28a vector and purified by standard cobalt affinity chromatography and elution with 200 mM imidazole. 6His-Fin1 was purified as described previously (Woodbury and Morgan, 2007). Substrates cloned into the pGEX-4T-1 were purified on glutathione agarose columns using 5 mM reduced glutathione for elution. Cks1 was purified as described previously (Reynard et al., 2000). The optimal working concentration for purified Cks1 was taken as 500 nM based on optimization performed for cyclin-Cdk1 preparations and T33-Sic1ΔC as a substrate.
(§3) For the quantitative phosphorylation assays of T33-Sic1ΔC constructs and recombinant substrates, substrate concentrations were kept in the range of 0.5-2 μM (in the linear [S] vs v0 range, several-fold below the estimated KM value), and the initial velocity conditions were defined as an initial substrate turnover ranging up to 10% of the total turnover. The latter was estimated by a long-term incubation with excess amounts of cyclin-Cdk1 and 32P-γ-ATP in the standard reaction mixture given below. About 1-10 nM of purified kinase complex was used, reaction aliquots were taken at two or more time points, and the reaction was stopped by SDS-PAGE sample buffer. The relative kcat/KM values for the substrates were calculated as the ratio of v0/[S], which was determined from at least two independent experiments. The basal composition of the assay mixture contained 50 mM Hepes, pH 7.4, 100 mM NaCl, 0.1% NP-40, 20 mM imidazole, 0.1 mg/ml 2HA peptide, 2% glycerol, 2 mM EGTA, 0.2 mg/ml BSA, […], and 500 μM ATP (with added 32P-γ-ATP (Perkin Elmer)).
(§4) About 1-10 nM of purified kinase complex was used, reaction aliquots were taken at two or more time points, and the reaction was stopped by SDS-PAGE sample buffer. For the steady-state peptide kinetics of the Histone peptide PKTPKKAKKL, a similar assay composition was used as for protein substrates and the standard phosphocellulose method was applied for the quantification of the phosphorylated substrate (Loog and Morgan, 2005). Synthetic peptides as competitor agents were used in 4 mM final concentrations. […]

The target in a further data set is T2, Clb5-Cdk1 (Saccharomyces cerevisiae, UniProt P00546+P30283).
T2 construct: We purified the four cyclin-Cdk1 complexes from yeast; made in house; host or cells: S. cerevisiae strain DOM0076 (gal-CLB5-TAP, sic1 deleted); Cks1 from bacteria
Here is the method:
as §1, §2, §3, §4

In a further data set the target is T3, Cln2-Cdk1 (Saccharomyces cerevisiae, UniProt P00546+P20438).
T3 construct: We purified the four cyclin-Cdk1 complexes from yeast; made in house; host or cells: S. cerevisiae strain DMY305 (galactose-induced); Cks1 from bacteria
How it is done:
as §1, §2, §3, §4

Another data set deals with T4, Clb2-Cdk1 (Saccharomyces cerevisiae, UniProt P00546+P24869).
T4 construct: We purified the four cyclin-Cdk1 complexes from yeast; made in house; host or cells: S. cerevisiae strain DOM0077 (gal-CLB2-TAP, sic1 deleted); Cks1 from bacteria
Here is the method:
as §1, §2, §3, §4

The next data set has as its target T5, Clb5hpm-Cdk1 (Saccharomyces cerevisiae, UniProt P00546).
T5 construct: made in house; host or cells: S. cerevisiae strain DOM0963 (gal-CLB5hpm-TAP, sic1 deleted); Cks1 from bacteria
How it is done:
(§5) For the quantitative phosphorylation assays of T33-Sic1ΔC constructs and recombinant substrates, substrate concentrations were kept in the range of 0.5–2 μM (in the linear [S] versus v0 range, several-fold below the estimated KM value), and initial velocity conditions were defined as an initial substrate turnover of up to 10% of the total turnover. For the steady-state peptide kinetics of the Histone peptide PKTPKKAKKL, a similar assay composition was used as for protein substrates, and phosphocellulose paper was used for the quantification of the phosphorylated substrate.
(§6) Supplemental Experimental Procedures
(§7) Plasmid constructs and yeast strains
(§8) For tandem affinity purification (TAP) of cyclin-Cdk1 complexes, the cyclin genes were cloned into the 2 micron vector pRSAB1234 containing a GAL1 promoter and the C-terminal TAP-tag. To purify different 6His-T33-Sic1ΔC forms for kinase assays, the C-terminally truncated fragment of Sic1 (with a stop codon inserted after amino acid 215) was cloned into the NheI/BamHI site of the bacterial expression vector pET28a (Invitrogen). Mutagenesis of cyclins or substrates was performed using single-stranded pRSAB1234 or pET28a vector constructs as templates. The triple mutants in the hydrophobic patch (hpm) of Clb5 and Clb2 were described previously (Loog and Morgan, 2005), and the hpm of Clb3 (Phe-201, Leu-205 and Trp-208 mutated to alanines) was designed according to sequence homology with other B-type cyclins. In T33-Sic1ΔC constructs, the other Cdk sites bearing the consensus motif S/T-P were mutated to Ala-Ala in order to prevent any possible (pseudo)substrate competition. The other Cdk substrates were cloned as full-length forms into bacterial expression vectors pET28a or pGEX-4T-1. Cdh1 was purified using the baculovirus system and was a kind gift from Monica Rodrigo-Brenni (UCSF). […]
The […]
(§9) pRSAB1234 analogously to the cyclin-Cdk1 complexes. For C-terminal tagging of cyclin genes in their chromosomal loci, the Pringle method was applied (Longtine et al., 1998). Lists of plasmid […]
(§10) The TAP method was applied for purification of cyclin-Cdk1 complexes and Swe1 as described previously for Clb5-TAP-Cdk1 and Clb2-TAP-Cdk1 (Puig et al., 2001; Ubersax et al., 2003). […]
as §2, with “tagged” for “similar substrate specificity as the Cln2-Cdk1 version purified using a TAP-tag. N-terminally 6His-tagged”
as §3
(§11) About 1-10 nM of purified kinase complex was used, reaction aliquots were taken at two or more […]

For another data set, the target named is T6, Clb3hpm-Cdk1 (Saccharomyces cerevisiae, UniProt P00546+P24870).
T6 construct: made in house; host or cells: S. cerevisiae strain MK0168 (gal-CLB3hpm-TAP, sic1 deleted); Cks1 from bacteria
Here is the method: as §5, §6, §7, §8
The […]
as §9, §10
as §2, with “tagged” for “similar substrate specificity as the Cln2-Cdk1 version purified using a TAP-tag. N-terminally 6His-tagged”
as §3, §11

A further data set addresses T7, Clb2hpm-Cdk1 (Saccharomyces cerevisiae, UniProt P00546).
T7 construct: made in house; host or cells: S. cerevisiae strain DOM0964 (gal-CLB2hpm-TAP, sic1 deleted); Cks1 from bacteria
How it is done: as §5, §6, §7, §8
The […]
as §9, §10
as §2, with “tagged” for “similar substrate specificity as the Cln2-Cdk1 version purified using a TAP-tag. N-terminally 6His-tagged”
as §3, §11

T4 sequence (P00546 2-298 limits assumed): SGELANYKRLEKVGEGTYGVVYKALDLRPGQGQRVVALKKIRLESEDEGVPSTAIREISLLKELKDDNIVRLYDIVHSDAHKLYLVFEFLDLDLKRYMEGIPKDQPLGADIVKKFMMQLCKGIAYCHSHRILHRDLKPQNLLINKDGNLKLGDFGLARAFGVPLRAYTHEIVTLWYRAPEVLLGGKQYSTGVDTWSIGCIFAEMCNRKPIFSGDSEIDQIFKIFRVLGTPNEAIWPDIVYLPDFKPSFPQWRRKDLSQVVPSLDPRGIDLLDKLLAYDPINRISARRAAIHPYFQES
T4 sequence (P24869 2-491 partner limits assumed): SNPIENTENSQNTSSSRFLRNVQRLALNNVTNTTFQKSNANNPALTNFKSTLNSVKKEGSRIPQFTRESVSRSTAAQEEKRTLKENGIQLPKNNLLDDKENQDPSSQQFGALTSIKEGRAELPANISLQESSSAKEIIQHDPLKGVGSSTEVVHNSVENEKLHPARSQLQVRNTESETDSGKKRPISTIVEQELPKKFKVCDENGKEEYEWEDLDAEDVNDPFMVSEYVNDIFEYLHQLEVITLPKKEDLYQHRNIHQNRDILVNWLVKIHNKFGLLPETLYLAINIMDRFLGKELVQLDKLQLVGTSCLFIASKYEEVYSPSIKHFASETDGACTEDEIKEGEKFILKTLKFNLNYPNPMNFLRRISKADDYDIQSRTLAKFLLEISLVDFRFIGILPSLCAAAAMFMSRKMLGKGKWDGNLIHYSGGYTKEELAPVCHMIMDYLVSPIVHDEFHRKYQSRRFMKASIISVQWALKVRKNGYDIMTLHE
T4 sequence (P20486 whole entry partner): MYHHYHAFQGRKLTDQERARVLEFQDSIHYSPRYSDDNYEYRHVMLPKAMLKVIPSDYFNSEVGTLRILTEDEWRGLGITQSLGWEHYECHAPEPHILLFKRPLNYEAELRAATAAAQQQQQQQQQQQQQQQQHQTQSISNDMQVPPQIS
T1 sequence (P00546 2-298 limits assumed): as the sequence (P00546 2-298 limits assumed) above
T1 sequence (P24870 whole entry partner): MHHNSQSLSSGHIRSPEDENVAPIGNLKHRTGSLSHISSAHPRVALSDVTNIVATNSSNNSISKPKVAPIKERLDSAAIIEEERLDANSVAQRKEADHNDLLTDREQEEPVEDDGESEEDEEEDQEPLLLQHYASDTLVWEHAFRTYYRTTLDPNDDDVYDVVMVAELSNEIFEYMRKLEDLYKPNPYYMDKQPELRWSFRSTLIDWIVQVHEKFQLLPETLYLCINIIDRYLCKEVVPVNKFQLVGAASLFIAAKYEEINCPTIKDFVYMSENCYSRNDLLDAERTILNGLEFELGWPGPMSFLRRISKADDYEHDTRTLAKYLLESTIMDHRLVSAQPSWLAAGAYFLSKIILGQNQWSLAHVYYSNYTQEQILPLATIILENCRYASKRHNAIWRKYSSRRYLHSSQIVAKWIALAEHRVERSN
T1 sequence (P20486 whole entry partner): as the sequence (P20486 whole entry partner) above
T5 sequence (P00546 2-298 limits assumed): as the sequence (P00546 2-298 limits assumed) above
T3 sequence (P00546 2-298 limits assumed): as above
T3 sequence (P20438 whole entry partner): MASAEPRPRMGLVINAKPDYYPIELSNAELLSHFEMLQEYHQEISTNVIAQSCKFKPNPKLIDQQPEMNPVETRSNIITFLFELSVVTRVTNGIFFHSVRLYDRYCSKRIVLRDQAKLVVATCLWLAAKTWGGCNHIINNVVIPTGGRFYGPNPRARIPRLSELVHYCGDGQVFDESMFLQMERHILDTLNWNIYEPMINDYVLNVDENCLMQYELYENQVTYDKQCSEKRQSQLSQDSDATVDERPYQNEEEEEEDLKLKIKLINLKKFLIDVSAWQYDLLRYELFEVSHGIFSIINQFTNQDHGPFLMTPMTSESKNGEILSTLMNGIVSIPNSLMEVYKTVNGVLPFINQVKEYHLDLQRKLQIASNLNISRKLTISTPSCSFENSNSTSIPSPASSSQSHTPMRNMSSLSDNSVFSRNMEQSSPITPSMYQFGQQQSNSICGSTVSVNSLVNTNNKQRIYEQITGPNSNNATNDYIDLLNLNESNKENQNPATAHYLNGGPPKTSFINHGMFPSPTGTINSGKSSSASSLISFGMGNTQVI
T3 sequence (P20486 whole entry partner): as the sequence (P20486 whole entry partner) above
T2 sequence (P00546 2-298 limits assumed): as the sequence (P00546 2-298 limits assumed) above
T2 sequence (P30283 whole entry partner): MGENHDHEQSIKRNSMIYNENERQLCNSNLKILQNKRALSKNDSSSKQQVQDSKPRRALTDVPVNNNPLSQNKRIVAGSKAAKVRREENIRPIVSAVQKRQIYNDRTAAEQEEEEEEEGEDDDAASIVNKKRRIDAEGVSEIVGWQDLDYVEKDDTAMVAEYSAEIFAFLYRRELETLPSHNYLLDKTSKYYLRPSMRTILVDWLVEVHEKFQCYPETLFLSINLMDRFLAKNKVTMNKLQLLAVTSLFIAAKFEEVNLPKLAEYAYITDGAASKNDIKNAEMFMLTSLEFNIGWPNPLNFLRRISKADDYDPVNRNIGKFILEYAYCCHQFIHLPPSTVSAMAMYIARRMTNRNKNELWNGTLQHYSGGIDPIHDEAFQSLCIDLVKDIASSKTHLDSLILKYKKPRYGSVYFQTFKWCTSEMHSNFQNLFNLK
T2 sequence (P20486 whole entry partner): as the sequence (P20486 whole entry partner) above
T7 sequence (P00546 2-298 limits assumed): as the sequence (P00546 2-298 limits assumed) above

B1: NDD1: component of the transcription factor complex controlling G2/M-specific genes, tested as Cdk1 substrate (protein, UniProt Q08887 1-554, looked up)
Nuclear division defective …: MDRDISYQQNYTSTGATATSSRQPSTDNNADTNFLKVMSEFKYNFNSPLPTTTQFPTPYSSNQYQQTQDHFANTDAHNSSSNESSLVENSILPHHQQIQQQQQQQQQQQQQQQALGSLVPPAVTRTDTSETLDDINVQPSSVLQFGNSLPSEFLVASPEQFKEFLLDSPSTNFNFFHKTPAKTPLRFVTDSNGAQQSTTENPGQQQNVFSNVDLNNLLKSNGKTPSSSCTGAFSRTPLSKIDMNLMFNQPLPTSPSKRFSSLSLTPYGRKILNDVGTPYAKALISSNSALVDFQKARKDITTNATSIGLENANNILQRTPLRSNNKKLFIKTPQDTINSTSTLTKDNENKQDIYGSSPTTIQLNSSITKSISKLDNSRIPLLASRSDNILDSNVDDQLFDLGLTRLPLSPTPNCNSLHSTTTGTSALQIPELPKMGSFRSDTGINPISSSNTVSFKSKSGNNNSKGRIKKNGKKPSKFQIIVANIDQFNQDTSSSSLSSSLNASSSAGNSNSNVTKKRASKLKRSQSLLSDSGSKSQARKSCNSKSNGNLFNSQ
As for B1, the “kcat/KM, Clb3” value in the data set with Clb3-Cdk1 is listed as 2.121 relative units. Besides, the “kcat/KM, Clb5” value with Clb5-Cdk1 stood at 0.388 relative units. For the same molecule, the “kcat/KM, Cln2” value with Cln2-Cdk1 is given as 0.143 relative units. Also, in the data set with Clb2-Cdk1, the “kcat/KM, Clb2” value is listed as 3.129 relative units. The “kcat/KM, Clb5hpm” value with Clb5hpm-Cdk1 is reported as 0.096 relative units. Further, in the data set with Clb3hpm-Cdk1, the “kcat/KM, Clb3hpm” value is on record as 0.222 relative units. Further, the “kcat/KM, Clb2hpm” value in the data set with Clb2hpm-Cdk1 stood at 1.108 relative units.

B2: ORC2: purified yeast protein tested as Cdk1 substrate (protein, UniProt P32833 1-620, looked up)
Origin recognition complex …: MLNGEDFVEHNDILSSPAKSRNVTPKRVDPHGERQLRRIHSSKKNLLERISLVGNERKNTSPDPALKPKTPSKAPRKRGRPRKIQEELTDRIKKDEKDTISSKKKRKLDKDTSGNVNEESKTSNNKQVMEKTGIKEKREREKIQVATTTYEDNVTPQTDDNFVSNSPEPPEPATPSKKSLTTNHDFTSPLKQIIMNNLKEYKDSTSPGKLTLSRNFTPTPVPKNKKLYQTSETKSASSFLDTFEGYFDQRKIVRTNAKSRHTMSMAPDVTREEFSLVSNFFNENFQKRPRQKLFEIQKKMFPQYWFELTQGFSLLFYGVGSKRNFLEEFAIDYLSPKIAYSQLAYENELQQNKPVNSIPCLILNGYNPSCNYRDVFKEITDLLVPAELTRSETKYWGNHVILQIQKMIDFYKNQPLDIKLILVVHNLDGPSIRKNTFQTMLSFLSVIRQIAIVASTDHIYAPLLWDNMKAQNYNFVFHDISNFEPSTVESTFQDVMKMGKSDTSSGAEGAKYVLQSLTVNSKKMYKLLIETQMQNMGNLSANTGPKRGTQRTGVELKLFNHLCAADFIASNEIALRSMLREFIEHKMANITKNNSGMEIIWVPYTYAELEKLLKTVLNTL
Turning to B2, the “kcat/KM, Clb3” value in the data set with Clb3-Cdk1 is 0.132 relative units. The “kcat/KM, Clb5” value in the data set with Clb5-Cdk1 is on record as 0.405 relative units. The “kcat/KM, Cln2” value with Cln2-Cdk1 is reported as 0.073 relative units. Further, the “kcat/KM, Clb2” value with Clb2-Cdk1 turned out to be 0.018 relative units. For the same molecule, the “kcat/KM, Clb5hpm” value with Clb5hpm-Cdk1 turned out to be 0.012 relative units. For the same molecule, in the data set with Clb3hpm-Cdk1, the “kcat/KM, Clb3hpm” value was found to be 0.028 relative units. For the same molecule, the “kcat/KM, Clb2hpm” value with Clb2hpm-Cdk1 is reported as 0.067 relative units.

B3: ORC6: purified yeast protein tested as Cdk1 substrate (protein, UniProt P38826 1-435, looked up)
Origin recognition complex …: MSMQQVQHCVAEVLRLDPQEKPDWSSGYLKKLTNATSILYNTSLNKVMLKQDEEVARCHICAYIASQKMNEKHMPDLCYYIDSIPLEPKKAKHLMNLFRQSLSNSSPMKQFAWTPSPKKNKRSPVKNGGRFTSSDPKELRNQLFGTPTKVRKSQNNDSFVIPELPPMQTNESPSITRRKLAFEEDEDEDEEEPGNDGLSLKSHSNKSITGTRNVDSDEYENHESDPTSEEEPLGVQESRSGRTKQNKAVGKPQSELKTAKALRKRGRIPNSLLVKKYCKMTTEEIIRLCNDFELPREVAYKIVDEYNINASRLVCPWQLVCGLVLNCTFIVFNERRRKDPRIDHFIVSKMCSLMLTSKVDDVIECVKLVKELIIGEKWFRDLQIRYDDFDGIRYDEIIFRKLGSMLQTTNILVTDDQYNIWKKRIEMDLALTEPL
For B3, the “kcat/KM, Clb3” value with Clb3-Cdk1 turned out to be 0.018 relative units. The “kcat/KM, Clb5” value with Clb5-Cdk1 came to 0.029 relative units. The “kcat/KM, Cln2” value with Cln2-Cdk1 is given as 0.002 relative units. Moreover, the “kcat/KM, Clb2” value in the data set with Clb2-Cdk1 was found to be 0.009 relative units. The “kcat/KM, Clb5hpm” value with Clb5hpm-Cdk1 was determined as 0.001 relative units. In addition, the “kcat/KM, Clb3hpm” value in the data set with Clb3hpm-Cdk1 is reported as 0.002 relative units. Further, in the data set with Clb2hpm-Cdk1, the “kcat/KM, Clb2hpm” value is on record as 0.005 relative units.
